# Laboratory results published in patent US20100316636A1.
# Tests used:
# [1] = biological target: recombinant human IL-6R protein, monomeric form (human) (UniProt P08887); assay: SPR (BIAcore), captured antibody, monomeric hIL-6R injected
# [2] = biological target: hIL-6R-hFc (human) (UniProt P08887); assay: blocking immunoassay: 100 pM hIL-6R-hFc premixed with titrated antibody, free hIL-6R-hFc captured on coated hIL-6
# [3] = biological target: recombinant human IL-6R protein, monomeric form (human) (UniProt P08887); assay: Kinexa solution-phase competition immunoassay, monomer
# [4] = biological target: recombinant monkey monomeric IL-6R protein (Macaca fascicularis, extracellular domain) (Macaca fascicularis); assay: SPR (BIAcore), antibody captured on anti-mouse Fc, monomeric IL-6R 1.25-40 nM injected
# [5] = biological target: recombinant human IL-6R protein, monomeric form (human) (UniProt P08887); assay: as above
# [6] = biological target: human IL-6 receptor on hIL-6-responsive cells (XG-1 myeloma line, HepG2 hepatoma line) (human) (UniProt P08887); assay: cell-based or functional assay
# Sequence of human IL-6 receptor on hIL-6-responsive cells (XG-1 myeloma line, HepG2 hepatoma line) (human) (P08887 20-468): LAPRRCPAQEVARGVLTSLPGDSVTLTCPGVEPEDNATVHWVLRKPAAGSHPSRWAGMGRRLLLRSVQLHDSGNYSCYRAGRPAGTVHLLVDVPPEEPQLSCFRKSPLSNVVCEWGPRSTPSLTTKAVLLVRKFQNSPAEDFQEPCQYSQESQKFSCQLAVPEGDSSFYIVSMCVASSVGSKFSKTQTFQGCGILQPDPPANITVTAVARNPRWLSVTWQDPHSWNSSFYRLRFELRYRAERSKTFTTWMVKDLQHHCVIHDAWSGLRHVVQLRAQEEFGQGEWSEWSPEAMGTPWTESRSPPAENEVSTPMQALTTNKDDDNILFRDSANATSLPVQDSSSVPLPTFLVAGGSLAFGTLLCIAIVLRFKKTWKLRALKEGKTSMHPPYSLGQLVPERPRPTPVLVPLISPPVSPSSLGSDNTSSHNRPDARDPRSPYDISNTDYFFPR
# Sequence of recombinant human IL-6R protein, monomeric form (human) (P08887 20-358 limits assumed): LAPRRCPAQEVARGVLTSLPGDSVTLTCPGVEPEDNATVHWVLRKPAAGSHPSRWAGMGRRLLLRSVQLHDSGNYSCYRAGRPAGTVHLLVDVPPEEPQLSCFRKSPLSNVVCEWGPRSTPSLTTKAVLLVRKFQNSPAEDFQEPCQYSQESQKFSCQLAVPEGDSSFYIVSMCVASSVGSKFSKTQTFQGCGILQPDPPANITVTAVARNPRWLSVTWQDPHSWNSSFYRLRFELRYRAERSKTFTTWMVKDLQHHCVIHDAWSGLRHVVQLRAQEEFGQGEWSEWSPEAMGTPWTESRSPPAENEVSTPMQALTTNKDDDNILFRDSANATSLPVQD
# Sequence of hIL-6R-hFc (human) (P08887 20-358): as the sequence (P08887 20-358 limits assumed) above
# Sequence of recombinant monkey monomeric IL-6R protein (Macaca fascicularis, extracellular domain) (Macaca fascicularis) (P08887 other isoform, or with tags, fused parts or gaps): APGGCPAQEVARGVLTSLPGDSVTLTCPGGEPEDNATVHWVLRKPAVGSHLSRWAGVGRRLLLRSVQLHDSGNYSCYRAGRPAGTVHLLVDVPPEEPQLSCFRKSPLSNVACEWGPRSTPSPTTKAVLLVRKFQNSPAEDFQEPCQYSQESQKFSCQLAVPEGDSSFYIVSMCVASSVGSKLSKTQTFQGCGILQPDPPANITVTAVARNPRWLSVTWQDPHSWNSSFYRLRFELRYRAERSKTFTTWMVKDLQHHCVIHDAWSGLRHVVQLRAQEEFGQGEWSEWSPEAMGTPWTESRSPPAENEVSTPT
substance,measurement,setting,value
"control: humanized monoclonal antibody to human IL-6R (U.S. Pat. No. 5,817,790 SEQ ID NO:69 and 71)",Kd,[1],1.79 nM
same,IC50,[2],2.2 nM
same,Kd,[3],1.96 nM
same,Kd,[4],1.17 nM
same,Kd,[5],0.963 nM
same,HepG2/Stat3 Luciferase activity IC50,[6],0.854 nM
same,XG-1 cell proliferation Inhibition IC50,[6],1.5 nM
